Drawing on the Human Domainome abundance scans (Beltran et al. 2025), this text covers abundance fitness for 167 variants.

To fix the notation:
B1: Tyrosine-protein kinase BTK, residues 215 to 273; numbered along this chain, Q06187 (parent)
chain: ELKKVVALYDYMPMNANDLQLRKGDEYFILEESNLPWWRARDKNGQEGYIPSNYVTEAE

± gives the uncertainty stated by the source.

The variants in this data set derive from B1. The data set is described as follows: abundance fitness (aPCA) (normalised: wild type 0, dead -1); higher = more abundant; growth selection in yeast, the domain comes from the species named. Particulars: Homo sapiens.
In the case of G45E, the abundance fitness is -0.156 ± 0.045.
With G45P the figure was -1.05 ± 0.15; with G45D, -0.057 ± 0.065; with G45I, -0.809 ± 0.15.
As to D18F, the abundance fitness is -0.04 ± 0.067.
Next, D18W: -0.07 ± 0.033; D18L: -0.073 ± 0.032.
In the case of D18Y, the abundance fitness came to 0.025 ± 0.051.
Next, D18V: -0.061 ± 0.038.
With D18I the figure was -0.033 ± 0.077.
As to Y49D, the abundance fitness was -0.032 ± 0.065.
With Y49W, the abundance fitness was -0.026 ± 0.047.
Regarding Y49Q, the abundance fitness was determined as 0.064 ± 0.063.
With Y49T the figure was -0.019 ± 0.05; with Y49H, -0.074 ± 0.074; with Y49S, -0.046 ± 0.042.
Next, Y49V: -0.018 ± 0.038; Y49C: -0.024 ± 0.053.
Take Y49L: the abundance fitness was found to be 0.003 ± 0.033.
Turning to E1F, the abundance fitness was -0.094 ± 0.2.
As to E1I, the abundance fitness was -0.106 ± 0.46.
Consider E1N, for which the abundance fitness was -0.012 ± 0.14.
With L21G the figure was -1.06 ± 0.073; with L21T, -0.523 ± 0.049; with L21E, -0.793 ± 0.085.
On to L21H, for which the abundance fitness is -0.761 ± 0.19.
With L21W the figure was -1.09 ± 0.11; with N34P, 0.031 ± 0.053; with N34W, -0.032 ± 0.06.
For P51S, the abundance fitness is -0.186 ± 0.043.
With P51G the figure was -0.286 ± 0.034; with P51H, -0.04 ± 0.097.
Next, P51W: -0.164 ± 0.045.
Next, P51Y: -0.04 ± 0.14; P51Q: -0.128 ± 0.055.
With P51I, the abundance fitness was -0.581 ± 0.12.
Consider P51F, for which the abundance fitness is -0.054 ± 0.077.
Next, T56C: -0.032 ± 0.092; T56V: 0.014 ± 0.038; T56W: -0.044 ± 0.055.
Next, T56A: 0.033 ± 0.038; T56H: 0.014 ± 0.087.
Next, T56Y: -0.191 ± 0.064.
Take T56D: the abundance fitness was 0.021 ± 0.062.
For N53I, the abundance fitness is -0.238 ± 0.091.
Consider N53V, for which the abundance fitness was -0.004 ± 0.038.
With N53H the figure was -0.123 ± 0.11; with N53S, -0.006 ± 0.04; with E57H, 0.023 ± 0.071.
E57S: the abundance fitness was -0.009 ± 0.035.
Next, E57Y: -0.018 ± 0.083; N17T: 0.002 ± 0.051.
With N17V, the abundance fitness is -0.068 ± 0.031.
Next, N17L: -0.019 ± 0.031.
For the variant N17M, the abundance fitness was -0.017 ± 0.05.
For the variant N17D, the abundance fitness was -0.011 ± 0.067.
Next, N17K: -0.052 ± 0.058; N17C: -0.01 ± 0.056.
Next, N17Y: -0.088 ± 0.056; N17E: -0.024 ± 0.043.
Regarding K43L, the abundance fitness was -0.029 ± 0.045.
Turning to K43Q, the abundance fitness was 0.009 ± 0.057.
Next, K43P: -0.098 ± 0.061; K43C: -0.033 ± 0.056.
With K43E, the abundance fitness was -0.005 ± 0.047.
Regarding K43R, the abundance fitness was -0.033 ± 0.033.
Turning to D25F, the abundance fitness is -0.107 ± 0.063.
With D25R, the abundance fitness was -0.068 ± 0.033.
With D25H the figure was -0.01 ± 0.048.
Consider D25N, for which the abundance fitness is -0.074 ± 0.057.
For D25L, the abundance fitness is -0.061 ± 0.036.
As for S52I, the abundance fitness was -0.053 ± 0.066.
For S52Q, the abundance fitness was -0.032 ± 0.06.
Next, S52D: -0.232 ± 0.063.
With S52W the figure was -0.03 ± 0.049; with S52N, -0.026 ± 0.072.
As for S52F, the abundance fitness was -0.108 ± 0.049.
Next, S52R: -0.008 ± 0.038; Q20A: -0.007 ± 0.04.
With Q20P the figure was -0.037 ± 0.044.
With Q20Y the figure was -0.037 ± 0.066.
For the variant Q20W, the abundance fitness was -0.131 ± 0.066.
Regarding Q20N, the abundance fitness is -0.152 ± 0.065.
Q20S: the abundance fitness was -0.007 ± 0.042.
As for Q20H, the abundance fitness was -0.075 ± 0.08.
Next, V5P: -0.755 ± 0.071; V5Y: -0.113 ± 0.054.
In the case of L8M, the abundance fitness is -0.014 ± 0.049.
Consider L8V, for which the abundance fitness is -0.055 ± 0.029.
Next, L8S: -0.107 ± 0.035; L8Q: -0.093 ± 0.047; L8T: -0.019 ± 0.04.
Take L8P: the abundance fitness is -0.657 ± 0.05.
With R22K the figure was 0.049 ± 0.047; with R22H, -0.08 ± 0.058; with R22G, -0.257 ± 0.033.
Turning to R22S, the abundance fitness is -0.003 ± 0.035.
With D42M the figure was -0.498 ± 0.055; with D42N, -0.081 ± 0.071.
Take D42C: the abundance fitness was -0.119 ± 0.055.
Take P36W: the abundance fitness was -0.17 ± 0.051.
Next, P36L: -0.094 ± 0.058; P36R: -0.029 ± 0.032.
With P36A the figure was 0.012 ± 0.049.
For the variant P36E, the abundance fitness was -0.024 ± 0.057.
Turning to P36Q, the abundance fitness amounted to 0.002 ± 0.054.
With A58F the figure was -0.016 ± 0.073.
Regarding A58T, the abundance fitness was -0.051 ± 0.053.
Take A40D: the abundance fitness was -0.952 ± 0.17.
A40I: the abundance fitness is -0.266 ± 0.076.
With A40Q the figure was -0.758 ± 0.093.
Consider A40Y, for which the abundance fitness is -0.734 ± 0.086.
Consider A40N, for which the abundance fitness is -0.981 ± 0.14.
Next, G24H: -0.178 ± 0.11.
Next, G24W: -0.34 ± 0.057.
Take G24L: the abundance fitness was -0.382 ± 0.035.
Next, G24E: -0.276 ± 0.048; G24V: -0.987 ± 0.056.
Turning to G24Q, the abundance fitness is -0.302 ± 0.048.
Next, G24S: -0.226 ± 0.04; L30S: -0.175 ± 0.038; L30T: -0.03 ± 0.053.
With L30R the figure was -0.223 ± 0.031; with L30I, -0.026 ± 0.056.
Next, L30F: -0.038 ± 0.061; L30M: -0.087 ± 0.052; L30E: -0.104 ± 0.055.
Turning to L30W, the abundance fitness was -0.147 ± 0.036.
Next, L30V: -0.015 ± 0.047; L30Q: -0.159 ± 0.052; Q46N: 0.007 ± 0.075.
As to Q46C, the abundance fitness came to 0.029 ± 0.055.
Next, Q46S: -0.065 ± 0.043.
Turning to Q46D, the abundance fitness was -0.077 ± 0.079.
In the case of Q46P, the abundance fitness was -0.616 ± 0.073.
With Q46M the figure was -0.053 ± 0.044.
In the case of F28L, the abundance fitness was -0.004 ± 0.038.
As for F28H, the abundance fitness is -0.07 ± 0.13.
Next, F28R: -0.012 ± 0.047.
Next, F28G: -0.049 ± 0.041.
As to F28S, the abundance fitness was -0.019 ± 0.039.
As to F28Y, the abundance fitness was -0.068 ± 0.063.
With E32S the figure was -0.018 ± 0.046.
With E26I the figure was -0.013 ± 0.051.
Next, E26H: -0.134 ± 0.099; E26P: -0.041 ± 0.051; E26G: -0.191 ± 0.042.
On to E26Y, for which the abundance fitness is -0.082 ± 0.058.
With E26A the figure was -0.075 ± 0.046; with E26T, 0.011 ± 0.052.
With L35M the figure was -0.028 ± 0.047; with L35P, 0 ± 0.057.
As to L35E, the abundance fitness was -0.022 ± 0.065.
With L35N the figure was -0.06 ± 0.066; with L35K, -0.039 ± 0.047; with L35R, -0.006 ± 0.031.
Regarding K23H, the abundance fitness was -0.019 ± 0.087.
In the case of K23W, the abundance fitness is -0.372 ± 0.033.
For the variant K23V, the abundance fitness is -0.072 ± 0.038.
With K23T the figure was -0.112 ± 0.061.
With K23A the figure was -0.024 ± 0.049; with K23C, -0.037 ± 0.061.
In the case of K23P, the abundance fitness is -0.371 ± 0.05.
On to A16D, for which the abundance fitness was 0.044 ± 0.051.
With A16H the figure was -0.026 ± 0.074; with A16T, -0.031 ± 0.039.
Next, A16M: -0.141 ± 0.042.
